Details in all cases: remark: other sources report otherwise
Assay [1] has as its target T1, SARS-CoV-2 Spike ectodomain (tri-S), Wuhan (SARS-CoV-2), P0DTC2. Nature of the assay: tri-S/ACE2 blocking ELISA [B].
Assay [2] concerns the target T1, SARS-CoV-2 Spike ectodomain (tri-S), …. In words: SPR (Biacore), antibody immobilised. On the technique in general: Surface plasmon resonance follows binding to a sensor surface in real time, without labels.
Assay [3] shares this target. Nature of the assay: competition ELISA vs bio-Cv2.3235.
For assay [4] the target is unchanged. In words: biotinylated tri-S on immobilised ACE2, competition ELISA.
For assay [5] the target is unchanged. Nature of the assay: tri-S capture ELISA.
In assay [6] the target is SARS-CoV-2 RBD (B.1.1.7) domain (SARS-CoV-2). Nature of the assay: RBD-ACE2 competition ELISA. Also noted: unit not given beside the values.
Assay [7] addresses SARS-CoV-2 RBD (P.1) domain (SARS-CoV-2). In words: RBD-ACE2 competition ELISA. Details: unit not given beside the values. (In general: An ELISA detects its analyte on a solid surface through an enzyme-linked reagent.)
In assay [8] the target is SARS-CoV-2 RBD (B.1.351) domain (SARS-CoV-2). Nature of the assay: RBD-ACE2 competition ELISA. Details: unit not given beside the values.
For assay [9], the target named is T1, SARS-CoV-2 Spike ectodomain (tri-S), …. Nature of the assay: competition ELISA vs bio-Cv2.1169.
The target of assay [10] is SARS-CoV-2 RBD (B.1.1.7) domain (SARS-CoV-2). In words: ELISA. Details: unit not given beside the values.
Assay [11] has as its target SARS-CoV-2 RBD (P.1) domain (SARS-CoV-2). In words: ELISA. Details: unit not given beside the values.
Assay [12] deals with SARS-CoV-2 RBD (B.1.351) domain (SARS-CoV-2). Nature of the assay: ELISA. Details: unit not given beside the values.
Assay [13] deals with T1, SARS-CoV-2 Spike ectodomain (tri-S), …. Nature of the assay: competition ELISA vs bio-Cv2.5213.
For assay [14], the target named is SARS-CoV-2 RBD (B.1.1.7) domain (SARS-CoV-2). Nature of the assay: RBD-ACE2 competition ELISA. Also noted: unit not given beside the values. This is another data set of the same source.
Assay [15] deals with SARS-CoV-2 RBD (P.1) domain (SARS-CoV-2). In words: RBD-ACE2 competition ELISA. Also noted: unit not given beside the values. This is another data set of the same source.
The target of assay [16] is SARS-CoV-2 RBD (B.1.351) domain (SARS-CoV-2). Nature of the assay: RBD-ACE2 competition ELISA. Details: unit not given beside the values. The source holds these as a separate data set.
Assay [17] has as its target T1, SARS-CoV-2 Spike ectodomain (tri-S), …. In words: competition ELISA vs bio-Cv2.3194.
Assay [18] has the same target. Nature of the assay: competition ELISA vs bio-Cv2.1353.
Assay [19] shares this target. In words: competition ELISA, spike protein binding to ACE2 ectodomain.
Assay [20] has the same target. In words: ELISA, coated antigen.
In assay [21] the target is SARS-CoV-2 RBD (P.1) domain (SARS-CoV-2). In words: ELISA.
Assay [22] addresses SARS-CoV-2 RBD (B.1.1.7) domain (SARS-CoV-2). In words: RBD/ACE2 blocking ELISA.
Assay [23] deals with SARS-CoV-2 RBD (P.1) domain (SARS-CoV-2). Nature of the assay: RBD/ACE2 blocking ELISA.
The target of assay [24] is SARS-CoV-2 RBD (B.1.351) domain (SARS-CoV-2). Nature of the assay: RBD/ACE2 blocking ELISA.
Assay [25] addresses SARS-CoV-2 RBD (B.1.1.7) domain (SARS-CoV-2). In words: ELISA. Details: unit not given beside the values. This is another data set of the same source.
Assay [26] concerns the target SARS-CoV-2 RBD (P.1) domain (SARS-CoV-2). Nature of the assay: ELISA. Also noted: unit not given beside the values. The source holds these as a separate data set.
For assay [27], the target named is SARS-CoV-2 RBD (B.1.351) domain (SARS-CoV-2). Nature of the assay: ELISA. Also noted: unit not given beside the values. The source holds these as a separate data set.

Positions count from the first letter of the chain named.

Usually Kd stands for the constant that tells how readily two partners part at equilibrium. For orientation: EC50 means the concentration giving half of the maximal effect. By EC50 (read off the curve) is commonly meant the concentration needed to bring the measured effect to its halfway point.

B1: Cv2.1353 (recombinant human IgG1) (antibody)
heavy: EVQLVESGGGLVQPGGSLRLSCAASGVTVSSNYMNWVRQAPGKGLEWVSVIYSGGSTFYADSVKGRFIISRDNSKNTLYLQMNSLKTEDTAVYYCARDLGPMGFDIWGQGTMVTVSSASTKGPSVFPLAPSSKSTSGGTAALGCLVKDYFPEPVTVSWNSGALTSGVHTFPAVLQSSGLYSLSSVVTVPSSSLGTQTYICNVNHKPSNTKVDKKVEPKSCDKTHTCPPCPAPELLGGPSVFLFPPKPKDTLMISRTPEVTCVVVDVSHEDPEVKFNWYVDGVEVHNAKTKPREEQYNSTYRVVSVLTVLHQDWLNGKEYKCKVSNKALPAPIEKTISKAKQPREPQVYTLPPSRDELTKNQVSLTCLVKGFYPSDIAVEWESNGQPENNYKTTPPVLDSDGSFFLYSKLTVDKSRWQQGNVFSCSVMHEALHNHYTQKSLSLSPGK
light: DIQMTQSPSFLSASVGDRVTITCRASQGISSYLAWYQQKPGKAPKLLIYAASTLQSGVPSRFSGSGSGTEFTLTISSLQPEDFATYYCQQLNSDPPVTFGPGTKVDIKRTVAAPSVFIFPPSDEQLKSGTASVVCLLNNFYPREAKVQWKVDNALQSGNSQESVTEQDSKDSTYSLSSTLTLSKADYEKHKVYACEVTHQGLSSPVTKSFNRGEC
Molecule B1 returned an AUC of blocking in assay [1] of 156. In [2], this molecule came in with a Kd of 2.22 nM. Besides, the % inhibition (competition) stood at 97 in assay [3]; 86 in assay [9]; 90 in assay [13]; 88 in assay [17]; 88 in [18]. Further, in assay [4], the EC50 stood at 0.26 µg/mL. Besides, the triS Capt-ELISA in assay [5] was 2.2. Besides, the AUC (RBD block.) in [6] was found to be 102; in assay [7], 33; in assay [8], 31; in assay [14], 203; in [15], 66; in assay [16], 62. Further, the AUC (RBD bind.) in assay [10] was 12; in assay [11], 13; in [12], 12. In addition, the AUC in assay [12] worked out at 13. In assay [19], this molecule showed an ACE2 Block (%) of 92%. In assay [20], the ELISA OD amounted to 3.5 OD. The same molecule had a triS ELISA (AUC) in [20] of 14 AUC.

B2: Cv2.5213 (recombinant human IgG1) (antibody)
heavy: EVQLVESGGGLIQPGGSLRLSCAASGFTVSSNYMSWVRQAPGKGLEWVSLIYSGGSTYYADSVKGRFTISRDNSKNTLYLQMNSLRAEDTAVYYCARDLNYYGMDVWGQGATVTVSSASTKGPSVFPLAPSSKSTSGGTAALGCLVKDYFPEPVTVSWNSGALTSGVHTFPAVLQSSGLYSLSSVVTVPSSSLGTQTYICNVNHKPSNTKVDKKVEPKSCDKTHTCPPCPAPELLGGPSVFLFPPKPKDTLMISRTPEVTCVVVDVSHEDPEVKFNWYVDGVEVHNAKTKPREEQYNSTYRVVSVLTVLHQDWLNGKEYKCKVSNKALPAPIEKTISKAKQPREPQVYTLPPSRDELTKNQVSLTCLVKGFYPSDIAVEWESNGQPENNYKTTPPVLDSDGSFFLYSKLTVDKSRWQQGNVFSCSVMHEALHNHYTQKSLSLSPGK
light: not shown
In the case of B2, the AUC of blocking in assay [1] was determined as 181. For the same molecule, in [2], the Kd came to 6.54 nM. In addition, the % inhibition (competition) in [3] is 98; in [9], 81; in assay [13] it was 90; in [17] it was 81; in [18] it was 84. Moreover, the EC50 in assay [4] was found to be 0.22 µg/mL. In assay [5], this molecule came in with a triS Capt-ELISA of 2.1. In addition, the AUC (RBD block.) turned out to be 22 in assay [6]; 4 in assay [7]; 9 in [8]; 45 in assay [14]; 9 in [15]; 18 in assay [16]. In addition, the AUC (RBD bind.) came to 13 in assay [10], 9 in assay [11] and 2 in assay [12]. In assay [12], this molecule came in with an AUC of 1. The molecule further displayed an EC50 (read off the curve) in [21] of 0.07 µg/mL. This molecule had an ACE2 Block (%) in [19] of 90%. Moreover, in [20], the ELISA OD was found to be 3.8 OD. For the same molecule, the triS ELISA (AUC) in [20] was determined as 14.2 AUC.

B3: Cv2.3235 (recombinant human IgG1) (antibody)
heavy: B2 heavy with S31R, L50V, Y58F, L99G, N100D, A111T
light: DIQMTQSPSFLSASVGDRVTITCRASQGISSFLAWYQQKPGKAPKLLIYGASTLQSGVTSRFSGSGSGTEFTLTISSLQPEDFATYYCQRLDSYPPITFGQGTRLEIKRTVAAPSVFIFPPSDEQLKSGTASVVCLLNNFYPREAKVQWKVDNALQSGNSQESVTEQDSKDSTYSLSSTLTLSKADYEKHKVYACEVTHQGLSSPVTKSFNRGEC
In turn, B3 showed an AUC of blocking in assay [1] of 164. Moreover, in assay [2], the Kd amounted to 5.37 nM. The % inhibition (competition) in assay [3] was found to be 93; in assay [9], 34; in assay [13], 67; in assay [17], 60; in assay [18], 56. Also, in assay [4], the EC50 is 0.47 µg/mL. Besides, in [5], the triS Capt-ELISA was determined as 1. Further, the AUC (RBD block.) in assay [6] came to 15; in assay [7], 2; in [8] it was 13; in assay [14], 30; in [15], 4; in assay [16], 25. Further, the AUC (RBD bind.) in assay [10] was 13; in assay [11] it was 2; in assay [12], 1. In assay [12], this molecule came in with an AUC of 1. Besides, the ACE2 Block (%) in assay [19] was determined as 78%. For the same molecule, the ELISA OD in [20] was determined as 3.6 OD. The triS ELISA (AUC) in assay [20] amounted to 13.2 AUC.

B4: COV2-2130 (antibody, V domains shown)
VH: EVQLVESGGGLVKPGGSLRLSCAASGFTFRDVWMSWVRQAPGKGLEWVGRIKSKIDGGTTDYAAPVKGRFTISRDDSKNTLYLQMNSLKTEDTAVYYCTTAGSYYYDTVGPGLPEGKFDYWGQGTLVTVSS
VL: not shown
With B4, the % binding inhibition in assay [22] came to 85%; in [23], 90%; in [24] it was 96%. The AUC in assay [25], in [26] and in assay [27] was 3 each time.

Values taken from patent US20240336672A1.
